Source: US20260078195A1 (BEIJING MABWORKS BIOTECH, published 2026)

T1: human BCMA antigen (Cat #:BCA-H522y, ACRO) (human, UniProt Q02223 1-54)
T1 construct: Bought recombinant protein used as SPR analyte
T1 sequence: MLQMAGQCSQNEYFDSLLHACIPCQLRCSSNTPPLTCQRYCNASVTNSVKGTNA

T2: human BCMA expressed on HEK293A cells (human, UniProt Q02223 1-184)
T2 construct: also called HEK293A/human BCMA cells
T2 sequence: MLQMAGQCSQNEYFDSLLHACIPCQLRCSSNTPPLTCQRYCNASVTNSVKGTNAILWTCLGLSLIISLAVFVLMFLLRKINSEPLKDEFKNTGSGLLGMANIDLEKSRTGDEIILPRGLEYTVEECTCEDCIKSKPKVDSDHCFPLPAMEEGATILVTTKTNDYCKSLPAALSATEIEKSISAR

T3: mouse BCMA expressed on HEK293A cells (mouse, UniProt O88472 1-185)
T3 construct: also called HEK293A/mouse BCMA cells
T3 sequence: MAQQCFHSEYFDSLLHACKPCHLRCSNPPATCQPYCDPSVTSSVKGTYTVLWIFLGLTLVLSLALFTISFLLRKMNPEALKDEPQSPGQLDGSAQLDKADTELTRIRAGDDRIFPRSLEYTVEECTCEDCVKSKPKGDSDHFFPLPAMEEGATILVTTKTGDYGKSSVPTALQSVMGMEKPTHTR

T4: monkey GPRC5D expressed on HEK293T cells (monkey, UniProt Q9NZD1 1-298 (human entry))
T4 construct: also called HEK293T/monkey GPRC5D cells
T4 chain: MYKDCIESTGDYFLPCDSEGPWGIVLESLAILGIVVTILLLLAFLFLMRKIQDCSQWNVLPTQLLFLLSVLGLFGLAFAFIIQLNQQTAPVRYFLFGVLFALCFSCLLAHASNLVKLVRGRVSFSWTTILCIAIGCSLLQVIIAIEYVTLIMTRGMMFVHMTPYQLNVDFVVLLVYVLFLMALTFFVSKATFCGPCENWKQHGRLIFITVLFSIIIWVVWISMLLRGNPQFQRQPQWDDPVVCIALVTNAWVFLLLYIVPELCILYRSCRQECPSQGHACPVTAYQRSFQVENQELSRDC

B1: MBS314 (tri-specific GPRC5D×BCMA×CD3 antibody) (other)
heavy 1: QVQLVQSGAEVKKPGASVKVSCKASGYTFTNHIIHWVRQAPGQGLEWMGYINPYPGYHGYNDKFSGRATMTSDTSTSTVYMELSSLRSEDTAVYYCARDGYYRDQDVLDYWGQGTLVTVSSGGGGSGGGGSGGGGSGGGGSDIQMTQSPSSLSASVGDRVTITCKASQDISQYLNWYQQKPGKAPKLLIYYTSGLHPGVPSRFSGSGSGTDFTFTISSLEPEDEATYYCQQGYALPWTFGQGTKLTAKGGGGSGGGGSGGGGSEVQLVESGGGLVQPGRSLRLSCAASGFTFDDFAMHWVRQAPGKGLEWVSGITWNSGSVGYADSVKGRFTISRDNAKKSLYLQMNSLRAEDTALYYCAKDRSGYGHYYYGMDVWGQGTTVTVASASTKGPSVFPLAPSSKSTSGGTAALGCLVKDYFPEPVTVSWNSGALTSGVHTFPAVLQSSGLYSLSSVVTVPSSSLGTQTYICNVNHKPSNTKVDKKVEPKSCDKTHTCPPCPAPEAAGGPSVFLFPPKPKDTLMISRTPEVTCVVVDVSHEDPEVKFNWYVDGVEVHNAKTKPREEQYASTYRVVSVLTVLHQDWLNGKEYKCKVSNKALPAPIEKTISKAKGQPREPQVYTLPPSREEMTKNQVSLWCLVKGFYPSDIAVEWESNGQPENNYKTTPPVLDSDGSFFLYSKLTVDKSRWQQGNVFSCSVMHEALHNHYTQKSLSLSPGK
light 1: not shown
heavy 2: QVQLQESGPGLVKPSETLSLTCTVSGYSITSDYAWNWIRQPPGKGLEWMGYISYSGSATYSPSLKSRITISRDTSKNQFSLKLSSVTAADTAVYYCARGGIAGRGRWGAMDYWGQGTTVTVSSASTKGPSVFPLAPSSKSTSGGTAALGCLVKDYFPEPVTVSWNSGALTSGVHTFPAVLQSSGLYSLSSVVTVPSSSLGTQTYICNVNHKPSNTKVDKKVEPKSCDKTHTCPPCPAPEAAGGPSVFLFPPKPKDTLMISRTPEVTCVVVDVSHEDPEVKFNWYVDGVEVHNAKTKPREEQYASTYRVVSVLTVLHQDWLNGKEYKCKVSNKALPAPIEKTISKAKGQPREPQVYTLPPSREEMTKNQVSLSCAVKGFYPSDIAVEWESNGQPENNYKTTPPVLDSDGSFFLVSKLTVDKSRWQQGNVFSCSVMHEALHNHYTQKSLSLSPGK
light 2: DIQMTQSPSSLSASVGDRVTITCKASQNVGTNVAWYQQKPGQSPKALIYSASYRDSGVPDRFSGSGSGTDFTLTISSLQPEDFATYYCQQYKSYPLTFGQGTRLEIKRTVAAPSVFIFPPSDEQLKSGTASVVCLLNNFYPREAKVQWKVDNALQSGNSQESVTEQDSKDSTYSLSSTLTLSKADYEKHKVYACEVTHQGLSSPVTKSFNRGEC
notes: also called antibody MBS314; tri-specific CD3×BCMA×GPRC5D antibody
B2: JNJ-64407564 (bi-specific GPRC5D×CD3 antibody) (bispecific antibody)
chain 1: QVQLVQSGAEVKKPGASVKVSCKASGYSFTGYTMNWVRQAPGQGLEWMGLINPYNSDTNYAQKLQGRVTMTTDTSTSTAYMELRSLRSDDTAVYYCARVALRVALDYWGQGTLVTVSS
chain 2: DIQMTQSPSSLSASVGDRVTITCKASQNVATHVGWYQQKPGKAPKRLIYSASYRYSGVPSRFSGSGSGTEFTLTISNLQPEDFATYYCQQYNRYPYTFGQGTKLEIK
chain 3: EVQLVESGGGLVQPGGSLRLSCAASGFTFNTYAMNWVRQAPGKGLEWVARIRSKYNNYATYYAASVKGRFTISRDDSKNSLYLQMNSLKTEDTAVYYCARHGNFGNSYVSWFAYWGQGTLVTVSS
chain 4: QTVVTQEPSLTVSPGGTVTLTCRSSTGAVTTSNYANWVQQKPGQAPRGLIGGTNKRAPGTPARFSGSLLGGKAALTLSGVQPEDEAEYYCALWYSNLWVFGGGTKLTVL

Assays:
[1] = molecular target: T5, human CD3 complex on Jurkat cells (human, UniProt P07766 23-207; P04234 22-171; P09693 23-182; P20963 22-164); experiment: FACS on Jurkat cells, PE goat anti-human IgG (H+L) secondary antibody, MFI
T5 construct: whole, on cells; Endogenous CD3 complex of Jurkat / JURKAT-NFAT-Luc cells; also called human Jurkat T cells; CD3 on the surface of JURKAT-NFAT-Luc cells
Method: (§1) The cells were re-suspended in PBS, counted, and centrifuged again to remove the supernatants. The cells were re-suspended in 2% FBS-PBS, to adjust the cell concentration to 4×10⁶/ml. Each kind of cells were added to 96-well U-bottom plates, 50 μl/well. The antibodies were diluted in 2% FBS-PBS, 5-fold serial dilution starting at 40 μg/ml, obtaining 12 concentrations in total. The 96-well plates were added with 50 μl antibody dilution, mixed well, and incubated at room temperature for 1 h. The plates were washed by 2% FBS-PBS, 200 μl/well, for three times. The plates were added with PE labelled goat-anti-human IgG (H+L) secondary antibody (1:500 diluted), 50 μl/well, and incubated at room temperature for 45 min. The plates were washed by 2% FBS-PBS, 200 μl/well, for three times. Finally the plates were added with 150 μl 2% FBS-PBS to re-suspend the cells, and the cells were tested in a flow cytometer. The data was processed in FlowJo and analyzed in GraphPad.

[2] = molecular target: T6, human GPRC5D expressed on HEK293T cells (human, UniProt Q9NZD1 1-345); experiment: FACS on HEK293T/human GPRC5D cells, PE goat anti-human IgG (H+L) secondary antibody, MFI
T6 construct: also called HEK293T/human GPRC5D cells
Method: as §1

[3] = molecular target: T7, human CD3D&E protein (Cat #: CT038-H2508H, Sino biological) (human, UniProt P04234 22-105; P07766 23-126); experiment: SPR (BIAcore 8K), antibody captured by anti-human Fc on CM5 chip, antigen as analyte
T7 construct: Bought recombinant delta/epsilon complex used as SPR analyte; also called CD3D&E complex
Method: (§2) The mouse anti-human Fe antibody (Cat #:BR100839, cytiva) was coupled to the surface of a CM5 chip. The antibody to be tested was diluted to 1 μg/ml with the HBS-EP buffer (Cat #:BR-1006-69, GE Life Sciences), to ensure about 100 RU of the antibody was captured by the anti-human Fe antibody. The human BCMA antigen (Cat #:BCA-H522y, ACRO), human CD3D&E protein (Cat #: CT038-H2508H, Sino biological), and human GPRC5D antigen (Cat #:HM05P, Kactus Biosystems) were diluted with HBS-EP buffer to […], respectively. Each protein at different concentrations was flowed through the surface of the stationary phase. Chips were regenerated by 3 M MgCl₂ solution. The kinetics assay was run with the Kinetics Wizard in BIAcore 8K's control software. […] The data was fitted in BIAcore 8K's evaluation software, and KD values of the test antibodies to the above antigens were determined and summarized in Table 1.

[4] = molecular target: T1, human BCMA antigen (Cat #:BCA-H522y, …); experiment: as above
Method: as §2

[5] = molecular target: T8, human GPRC5D antigen (Cat #:HM05P, Kactus Biosystems) (human, UniProt Q9NZD1 1-345, limits assumed); experiment: as above
T8 construct: Bought antigen used as SPR analyte
Method: as §2

[6] = molecular target: T9, monkey BCMA expressed on HEK293A cells (monkey, UniProt Q02223 1-184 (human entry)); experiment: FACS on HEK293A/monkey BCMA cells, PE goat anti-human IgG (H+L) secondary antibody, MFI
T9 construct: also called HEK293A/monkey BCMA cells
Method: as §1

[7] = molecular target: T2, human BCMA expressed on HEK293A cells; experiment: FACS on HEK293A/human BCMA cells, PE goat anti-human IgG (H+L) secondary antibody, MFI
Method: as §1

[8] = molecular target: T3, mouse BCMA expressed on HEK293A cells; experiment: FACS on HEK293A/mouse BCMA cells, PE goat anti-human IgG (H+L) secondary antibody, MFI
Method: as §1

[9] = molecular target: T4, monkey GPRC5D expressed on HEK293T cells; experiment: FACS on HEK293T/monkey GPRC5D cells, PE goat anti-human IgG (H+L) secondary antibody, MFI
Method: as §1

T8 sequence (Q9NZD1 whole entry): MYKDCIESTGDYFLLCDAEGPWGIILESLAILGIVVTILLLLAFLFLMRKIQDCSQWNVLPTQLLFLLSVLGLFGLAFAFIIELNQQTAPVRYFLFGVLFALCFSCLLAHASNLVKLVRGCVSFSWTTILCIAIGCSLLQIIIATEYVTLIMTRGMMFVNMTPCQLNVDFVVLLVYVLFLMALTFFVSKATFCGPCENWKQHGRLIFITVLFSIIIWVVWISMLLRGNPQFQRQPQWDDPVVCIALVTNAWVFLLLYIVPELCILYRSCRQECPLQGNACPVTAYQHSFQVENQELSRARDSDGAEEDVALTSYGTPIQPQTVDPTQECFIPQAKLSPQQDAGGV
T7 sequence (P04234 22-105, chain 1 of 2): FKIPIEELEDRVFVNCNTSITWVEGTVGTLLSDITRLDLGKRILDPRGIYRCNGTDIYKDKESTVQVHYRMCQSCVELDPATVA
T7 sequence (P07766 23-126, chain 2 of 2): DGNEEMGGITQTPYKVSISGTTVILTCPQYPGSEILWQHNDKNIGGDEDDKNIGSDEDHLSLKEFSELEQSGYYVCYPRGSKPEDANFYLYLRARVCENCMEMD
T5 sequence (P07766 23-207, chain 1 of 4): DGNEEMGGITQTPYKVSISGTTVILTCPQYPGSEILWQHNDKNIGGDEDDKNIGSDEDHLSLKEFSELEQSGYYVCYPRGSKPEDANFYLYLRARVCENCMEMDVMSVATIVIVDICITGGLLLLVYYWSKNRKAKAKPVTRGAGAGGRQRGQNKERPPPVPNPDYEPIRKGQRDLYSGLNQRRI
T5 sequence (P04234 22-171, chain 2 of 4): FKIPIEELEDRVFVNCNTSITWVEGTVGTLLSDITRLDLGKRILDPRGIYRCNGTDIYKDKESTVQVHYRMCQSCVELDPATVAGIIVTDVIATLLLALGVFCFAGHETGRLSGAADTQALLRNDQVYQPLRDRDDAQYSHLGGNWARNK
T5 sequence (P09693 23-182, chain 3 of 4): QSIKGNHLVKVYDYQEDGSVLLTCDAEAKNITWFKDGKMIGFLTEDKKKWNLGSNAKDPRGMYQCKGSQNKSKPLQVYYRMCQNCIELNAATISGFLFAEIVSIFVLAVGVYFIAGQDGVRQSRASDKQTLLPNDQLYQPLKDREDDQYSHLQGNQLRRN
T5 sequence (P20963 22-164, chain 4 of 4): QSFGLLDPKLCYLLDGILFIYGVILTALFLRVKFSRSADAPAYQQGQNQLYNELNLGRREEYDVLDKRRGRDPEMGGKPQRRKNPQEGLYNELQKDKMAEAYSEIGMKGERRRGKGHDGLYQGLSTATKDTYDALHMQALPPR
T9 sequence (Q02223 other isoform, or with tags, fused parts or gaps): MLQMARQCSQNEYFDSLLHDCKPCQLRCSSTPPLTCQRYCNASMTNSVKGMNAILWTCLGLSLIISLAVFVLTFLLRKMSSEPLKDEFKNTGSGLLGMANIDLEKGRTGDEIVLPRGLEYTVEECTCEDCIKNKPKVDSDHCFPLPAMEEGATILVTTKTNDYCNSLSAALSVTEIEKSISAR
T6 sequence (Q9NZD1 whole entry): as the sequence (Q9NZD1 whole entry) above

Binder | binding result [1] | EC50 (read off the curve) [2] [µg/mL] | Kd [3] [nM] | koff [3] [s⁻¹] | kon [3] [M⁻¹ s⁻¹] | Kd [4] [nM] | koff [4] [s⁻¹] | kon [4] [M⁻¹ s⁻¹] | Kd [5] [nM] | koff [5] [s⁻¹] | kon [5] [M⁻¹ s⁻¹] | EC50 (read off the curve) [6] [µg/mL] | EC50 (read off the curve) [7] [µg/mL] | binding result [8] | EC50 (read off the curve) [9] [µg/mL] | EC50 (read off the curve) [1] [µg/mL]
B1 | binds | ~0.4 | 249 | 0.00774 | 31100 | 0.441 | 0.000283 | 642000 | 3.53 | 0.00174 | 493000 | ~0.8 | ~1 | no binding | ~0.4 | –
B2 | – | – | – | – | – | – | – | – | – | – | – | – | – | – | – | ~0.06
